Assays:
MAP kinase (ERK2) [1] = assay: MAP kinase (ERK2) immunoprecipitation / MBP kinase assay in HBx-transfected Chang cells; format: cell-based, human
Protocol: (FIG. 2B) ERK2 was immunoprecipitated from equal amounts of cell lysates analyzed by in vitro phosphorylation of myelin basic protein (MBP) using [γ-^32P] ATP. […] Cells were stimulated with 100 μg/ml of insulin (Intergen) for 10 min.
To assay for MAP kinase activity, cells were lysed in freshly prepared lysis buffer (10 mM Tris HC1 pH 7.5, 1% Triton X-100, 0.5% NP-40, 1 mM EDTA, 1 mM EGTA, 1 mM Na3VO4, 50 mM NaF, 1 mM PMSF, 40 mM PPi, 10 μg/ml aprotinin, and 10 μg/ml leupeptin) and MAP kinase was immunoprecipitated using 1μg/ml anti-ERK2 antibodies from equal amounts of protein. After 4 washes with lysis buffer, and 2 with kinase buffer (20 mM Hepes pH 7.4, 10 mM MgCl2), the immunoprecipitates were incubated with kinase buffer including 0.5 mg/ml myelin basic protein (MBP, Sigma), 10 mM ATP and 5 μCi [γ-^32P]ATP for 30 minutes at 30° C. The reactions were stopped by the addition of 2× sample loading buffer (Sambrook et al. 1989, supra), resolved by 15% SDS-PAGE and visualized by autoradiography. Assays for activation of JNK MAP kinases were carried out exactly as described above, except that the immunoprecipitated JNK was incubated with 5 μg purified GST-c-Jun (Benn et al., 1996, supra) and 10 μCi [γ-^32P]ATP, and resolved by 10% SDS-PAGE.
To test whether HBx activation of the Src family of kinases is required for stimulation of Ras signaling by HBx, Chang cells were transfected at low density with plasmids expressing HBxo, HBx or HBx and Csk, serum-starved for 20 hours, 2% serum restored for 2 hours to permit protein synthesis, and activation of immunoprecipitated MAP kinase at the end of the Ras-MAP kinase cascade assayed by incubation with myelin basic protein (MBP) and [γ-^32P]ATP (FIG. 2). Expression of HBx induces a strong activation in the ability of MAP kinase to phosphorylate MBP that is abolished upon co-transfection of HBx with Csk. […]

[2] = system: AP-1 dependent transcription; assay: AP-1 dependent luciferase reporter, HBx-transfected Chang cells; format: cell-based, human; conditions: co-expression with Csk
Protocol: (FIG. 3B) Cells were transfected as above but contained in addition 3 μg of plasmid pAP-1Luc, which encodes the luciferase reporter under the control of four AP-1 binding sites and a minimal TATA box promoter. Serum starved cells were harvested 18 h after transfection and the level of expression of the luciferase reporter assayed. Results are the average of three independent experiments.
(§1) Here it is shown that HBx activation of AP-1 DNA binding activity and AP-1 directed transcription, both involve an essential requirement for HBx activation of Src tyrosine kinases. Chang cells were transfected with plasmids expressing HBx or HBxo proteins, with or without cotransfection of Csk, serum starved and nuclear extracts prepared for electrophoretic mobility shift assay (EMSA) using equal amounts of nuclear extracts and a ^32P-labeled dsDNA probe containing one AP-1 binding site, as described (Benn et al., 1996 supra). Cotransfection of increasing amounts of the Csk expressing plasmid suppressed HBx induction of AP-1 DNA binding complexes in a titratable manner (FIG. 3A). Finally, cells were cotransfected with plasmids expressing HBx or HBxo and an AP-1 dependent luciferase reporter under the control of a minimal promoter, with and without a Csk expression plasmid (FIG. 3B).

MAP kinase (ERK2) [3] = assay: MAP kinase (ERK2) MBP kinase assay during WHV replication in Chang cells; format: cell-based, human; conditions: co-expression with wtWHV
Protocol: FIG. 6. Woodchuck Hepatitis B Virus (WHV) HBx protein (WHx) activates a Src-Ras signaling cascade during WHV replication in cultured cells. […] Eighteen hours post-transfection, cells were serum-starved in 0.5% CS for 20 hours, MAP kinase (ERK-2) was immunoprecipitated from equal amounts of cell lysates and pellets were subjected to an in vitro MBP kinase assay.
To assay for MAP kinase activity, cells were lysed in freshly prepared lysis buffer (10 mM Tris HC1 pH 7.5, 1% Triton X-100, 0.5% NP-40, 1 mM EDTA, 1 mM EGTA, 1 mM Na3VO4, 50 mM NaF, 1 mM PMSF, 40 mM PPi, 10 μg/ml aprotinin, and 10 μg/ml leupeptin) and MAP kinase was immunoprecipitated using 1μg/ml anti-ERK2 antibodies from equal amounts of protein. After 4 washes with lysis buffer, and 2 with kinase buffer (20 mM Hepes pH 7.4, 10 mM MgCl2), the immunoprecipitates were incubated with kinase buffer including 0.5 mg/ml myelin basic protein (MBP, Sigma), 10 mM ATP and 5 μCi [γ-^32P]ATP for 30 minutes at 30° C. […]
To determine whether WHx also requires activation of Src family kinases for stimulation of Ras signaling during ongoing viral replication, Chang cells were co-transfected with plasmids synthesizing wtWHV and dominant-negative Ras (RasDN), dominant-negative Src (SrcK^−), or Csk proteins, and activation of MAP kinase was measured. […]

WHV [4] = assay: WHV replication: Southern blot of core-associated viral DNA, Chang cells; format: cell-based, Woodchuck Hepatitis B Virus; conditions: co-expression with wtWHV, 3 days post-transfection
Protocol: FIG. 7. WHx requires activation of Src family kinase for WHV replication. Chang cells were co-transfected with 20 μg PCWHV, wtWHV, wtWHV and RasDN (dominant-negative) (10 μg), or wtWHV and Csk (10 μg). Three days post-transfection viral core-associated DNA was isolated, purified, and subjected to Southern blot analysis using a full-length ^32P-labeled WHV genomic probe.
Chang cells were transfected with infectious WHV clones, (2×10 cm plates) were washed twice with PBS and lysed in 500 μl lysis buffer/10 cm plate (20 mM Tris HCl pH 7.5, 1 mM EDTA, 100 mM NaCl, 0.5% NP-40) for 10-15 minutes. Lysates were centrifuged at 12,000× g for 30 minutes, MgCl2 was adjusted to 10 mM, DNAseI (Boehringer Mannheim) was added to 20 U/ml and the lysates were incubated at 37° C. for 2 hours. Following DNAse I treatment, the lysates were centrifuged for 5 min at 12,000× g, layered onto a 20% sucrose cushion (300 μl of 20% sucrose in 20 mM Tris HCl pH 8.0, 150 mM NaCl) and centrifuged for 178,000× g for 3 hours at 20° C. […]
Chang cells were co-transfected with plasmids encoding either wtWHV, PCWHV, wtWHV and RasDN, or wtWHV and Csk, intracellular core-associated viral DNA was isolated 3 days post-transfection, and purified viral DNA analyzed by Southern blot hybridization as described above (FIG. 7).

N-Myc = N-Myc immunoblot of nuclear extracts, HBx-transfected Chang cells; format: cell-based, human; conditions: co-expression with HBx, serum-starved 20 hours
Protocol: Chang cells were transfected with plasmids expressing HBxo, HBx, Csk, SrcK^−, FynK^−, and the dominant-negative Ras (RasN17). The Ras N17 mutant was initially shown to preferentially bind GDP in vitro and to inhibit cellular proliferation when stably expressed in NIH 3T3 cells (Feig et al., 1988, Moll. Cell Biol. 8:3235-3243). Transfected cells were serum-starved for 20 hours, nuclear extracts prepared, equal amounts of protein resolved by SDS-PAGE and immunoblotted with anti-N-Myc antibodies. Expression of transfected HBx elevates the amount of N-Myc protein 3-4 fold. […] The inability of dominant-negative Ras or Fyn proteins to block Src activation is consistent with the report by Barone and Courtneidge (1995, supra). Co-expression of HBx with the dominant-negative Ras had no effect on induction of N-Myc by HBx, and neither did the expression of dominant-negative Fyn protein. Whether other Src family members (e.g. Yes or Lyn) are involved in N-Myc induction by HBx was not tested in these experiments.

CMV promoter = assay: CMV-βgal reporter control (β-galactosidase activity); format: cell-based; conditions: co-expression of Csk with CMV-βgal
Source text: (§2) To assess whether HBx activation of a Src signaling cascade plays an essential role in transcriptional upregulation of the viral mRNAs, Chang cells were co-transfected with wtWHV and either RasDN or Csk plasmids, and the RNA visualized by Northern analysis (FIG. 7, lanes 2 and 3). […] To ensure that the decrease in synthesis of WHV RNA by Csk was not the unforseen consequence of Csk inhibition of the CMV promoter (which drives synthesis of the WHV pregenomic RNA), control experiments assessing the effect of Csk on a CMV-βgal reporter were carried out. […] However, the WHx-induced increase in mRNA abundance (˜3-5 fold) is much less then the HBx-induced increase in viral DNA synthesis (˜20-30 fold). […] The stimulation of Src signaling cascades by HBx must therefore promote WHV replication independent of the effect of WHx on viral transcription.

AP-1 = AP-1 electrophoretic mobility shift assay (EMSA), HBx-transfected Chang cells; format: cell-based, human; conditions: cotransfection of increasing amounts of Csk plasmid
Protocol: (FIG. 3A) Cell extracts were prepared for AP-1 EMSA as described (Benn et al., 1996, supra) using a ^32P-labeled dsDNA oligonucleotide probe containing one AP-1 binding site. Reactions were carried out using 3 μg of nuclear extract, labeled oligonuleotide and 1 μg of poly(dI-dC) for 30 min at 23° C. Protein-DNA complexes were resolved by electrophoresis on 4% polyacrylamide gels and visualized by PhosphorImage 5analysis. As a positive control for AP-1 stimulation, cells were treated with 20 μM TPA for 30 min.
as §1, with “Finally, cells were cotransfected with plasmids expressing HBx or HBxo and an AP-1 dependent luciferase reporter under the control of a minimal promoter, with and without a Csk expression plasmid (FIG. 3B).” left out

WHV [5] = assay: WHV RNA: Northern blot analysis, Chang cells; format: cell-based, Woodchuck Hepatitis B Virus; conditions: co-expression with wtWHV
Protocol: Chang cells were washed twice with PBS and total RNA prepared according to the manufacturer's instructions (RNeasy mini kit; Qiagen). 15 μg total RNA per sample were resolved through a 1.2% formaldehyde-agarose gel (Sambrook et al., 1989, supra), transferred to Duralon UV membrane, and pre-hybridized in Quick-Hyb solution (Stratagene) at 65° C. Hybridization to 32P-labeled full length WHV probe was carried out in the same solution at 65° C., washed as described above, and autoradiographed for 1 day.
as §2

B1: Csk: protein tyrosine kinase C-terminal Src kinase, physiologic inhibitor of Src, expressed from plasmid (protein, UniProt P41240 2-450, looked up)
Tyrosine-protein kinase CSK: SAIQAAWPSGTECIAKYNFHGTAEQDLPFCKGDVLTIVAVTKDPNWYKAKNKVGREGIIPANYVQKREGVKAGTKLSLMPWFHGKITREQAERLLYPPETGLFLVRESTNYPGDYTLCVSCDGKVEHYRIMYHASKLSIDEEVYFENLMQLVEHYTSDADGLCTRLIKPKVMEGTVAAQDEFYRSGWALNMKELKLLQTIGKGEFGDVMLGDYRGNKVAVKCIKNDATAQAFLAEASVMTQLRHSNLVQLLGVIVEEKGGLYIVTEYMAKGSLVDYLRSRGRSVLGGDCLLKFSLDVCEAMEYLEGNNFVHRDLAARNVLVSEDNVAKVSDFGLTKEASSTQDTGKLPVKWTAPEALREKKFSTKSDVWSFGILLWEIYSFGRVPYPRIPLKDVVPRVEKGYKMDAPDGCPPAVYEVMKNCWHLDAAMRPSFLQLREQLEHIKTHELHL
- HBx activation of ERK2 (MAP kinase (ERK2) [1]; co-expression with HBx, serum-starved in 0.5% CS for 24 hours): impaired
- HBx activation of MAP kinase (phosphorylation of MBP) (MAP kinase (ERK2) [1]; co-transfection of HBx with Csk, serum-starved 20 hours, 2% serum 2 hours): abolished
- activation of MAP kinase by insulin (MAP kinase (ERK2) [1]; overexpression of Csk): only slightly impaired
- HBx induced activation of AP-1 dependent transcription [2]: fully blocked
- downstream activation of MAP kinase by wtWHV (MAP kinase (ERK2) [3]): efficiently inhibited
- WHV replication (core-associated viral DNA) (WHV [4]): completely abolished
- increase in N-Myc protein by HBx (N-Myc): impaired
- expression of βgal protein from CMV-βgal (β-galactosidase activity) (CMV promoter): did not significantly alter
- HBx induction of AP-1 DNA binding complexes (AP-1): suppressed
- reduction of WHV RNA level (WHV [5]): 3-5 fold
